Data on one substance can be found in publication PMC10698194.

For the assay, the target named is mouse KOR-EGFP (mouse) (UniProt P33534).
mouse KOR-EGFP (mouse), sequence (P33534 whole entry): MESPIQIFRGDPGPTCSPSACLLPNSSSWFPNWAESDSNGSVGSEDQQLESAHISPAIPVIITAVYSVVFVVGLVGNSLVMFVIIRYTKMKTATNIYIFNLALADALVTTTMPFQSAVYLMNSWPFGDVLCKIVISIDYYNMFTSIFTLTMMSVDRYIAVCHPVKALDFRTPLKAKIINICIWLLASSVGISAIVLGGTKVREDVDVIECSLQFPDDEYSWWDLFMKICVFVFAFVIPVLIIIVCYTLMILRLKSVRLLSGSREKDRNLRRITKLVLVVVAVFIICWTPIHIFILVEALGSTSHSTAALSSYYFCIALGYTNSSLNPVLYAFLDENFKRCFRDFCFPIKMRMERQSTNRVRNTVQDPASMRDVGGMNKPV

dynorphin (dyn) A_(1-13) (peptide) came in with a β-arrestin-2 recruitment (BRET), EC50 of 31 nM.
